Consider 2 substances from paper PMC10164081.

The target in one assay is Gαolf (human) (UniProt P38405).
The target in assay [1] is purified Ric-8B (peptide-binding thermal shift assay) (mouse) (UniProt Q80XE1). Description: differential scanning fluorimetry. A general note: DSF heats the sample and reads unfolding from a dye or from intrinsic fluorescence.
purified Ric-8B (peptide-binding thermal shift assay) (mouse), sequence (Q80XE1 1-483): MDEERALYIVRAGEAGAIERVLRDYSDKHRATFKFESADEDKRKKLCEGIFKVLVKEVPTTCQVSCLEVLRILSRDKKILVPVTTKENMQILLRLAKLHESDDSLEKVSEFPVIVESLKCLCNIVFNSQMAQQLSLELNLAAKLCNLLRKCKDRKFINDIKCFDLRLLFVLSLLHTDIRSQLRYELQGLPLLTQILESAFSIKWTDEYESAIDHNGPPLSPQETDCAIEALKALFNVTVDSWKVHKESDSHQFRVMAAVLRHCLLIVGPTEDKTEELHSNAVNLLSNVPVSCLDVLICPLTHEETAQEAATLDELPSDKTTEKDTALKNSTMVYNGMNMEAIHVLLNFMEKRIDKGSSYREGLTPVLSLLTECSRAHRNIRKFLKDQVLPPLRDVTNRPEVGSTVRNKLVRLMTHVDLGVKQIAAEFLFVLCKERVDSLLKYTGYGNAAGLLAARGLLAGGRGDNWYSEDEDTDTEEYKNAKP

Gαolf (human), sequence (P38405 whole entry): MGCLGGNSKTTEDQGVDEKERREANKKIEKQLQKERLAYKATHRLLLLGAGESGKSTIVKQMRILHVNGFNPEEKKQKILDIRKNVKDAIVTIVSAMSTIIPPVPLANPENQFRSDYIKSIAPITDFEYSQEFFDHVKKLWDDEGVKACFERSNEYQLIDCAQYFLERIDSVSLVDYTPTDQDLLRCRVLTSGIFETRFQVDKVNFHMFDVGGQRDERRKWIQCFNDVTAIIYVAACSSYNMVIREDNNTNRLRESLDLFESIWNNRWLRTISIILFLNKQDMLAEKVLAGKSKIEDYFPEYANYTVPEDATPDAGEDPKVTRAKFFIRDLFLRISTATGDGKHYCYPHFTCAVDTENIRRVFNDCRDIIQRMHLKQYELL

As to “Ric-8B with its ARM7 loop replaced by that of Ric-8A”, the folding of the Gαolf-RLuc sensor (luminescence) in RIC-8B knockout HEK293T cells in the assay with Gαolf (human) was 10 % decrease.
As to Gαs C-term amidated peptide, the maximal thermal shift (ΔTm) in assay [1] is 3.3 °C.
